B1: CPEB3 Ribozyme (parent)
chain: GGGGGCCACAGCAGAAGCGUUCACGUCGCGGCCCCUGUCAGAUUCUGGUGAAUCUGCGAAUUCUGCUGU

In this data set the parent is B1. The data set can be described thus: self-cleavage, relative activity (ratio to wild type); higher = more cleavage; co-transcriptional.
Take U44A G68C: the self-cleavage came to 1.01.
Take U44A G68A: the self-cleavage stood at 0.964.
As for U44A G68U, the figure is 0.981.
Regarding A42U U49G, the self-cleavage stood at 0.957.
Under A42U U49C stands 0.915.
In the case of U43C G47A, the self-cleavage turned out to be 1.02.
Regarding U43C G47C, the self-cleavage is 1.01.
Under U43C U44C stands 0.937; under U43C U44A, 1.02; under U43A C63G, 0.45.
Under U43A C63A stands 0.504; under U43A U62A, 0.587; under U43A U62G, 0.641.
For U44C, the self-cleavage stood at 0.957.
As to U44G, the self-cleavage stood at 0.985.
As for U44A, the figure is 0.983; as for U43C G65C, 0.567.
Under U43C C54G stands 0.585; under U43C C54U, 0.905.
As for U44G U55C, the figure is 0.512.
Consider U44G U53A, for which the self-cleavage turned out to be 0.755.
Under U44G U53C stands 0.749; under U44G A59G, 0.951.
Under U44G A59U stands 0.612; under U44A C45G, 0.983; under U44A C45U, 0.965.
As for U44C G50U, the figure is 0.93; as for U44C G50C, 0.948.
U43C A59U: the self-cleavage came to 0.68.
With U43C A59C, the self-cleavage was determined as 0.652.
Under U43C A59G stands 1.02; under U44C A60U, 0.441.
Under U44C A60G stands 0.669; under U44C A52G, 1.01.
For the variant U44C A52C, the self-cleavage worked out at 0.95.
Consider U44C A52U, for which the self-cleavage was determined as 1.
As for U44G C54U, the figure is 0.87; as for U44G C54G, 0.417; as for U44C G48C, 1.
Under U44C G48A stands 1.02.
Consider U44C G48U, for which the self-cleavage was determined as 1.02.
Regarding U43C C63G, the self-cleavage is 0.648.
In the case of U43C C63A, the self-cleavage is 0.619.
On to U44C U49A, for which the self-cleavage amounted to 0.931.
Under U44C U49G stands 0.959; under U44C U49C, 0.83.
In the case of U43G A51U, the self-cleavage was 0.934.
As for U43G A51C, the figure is 0.941.
Under U43G A51G stands 0.901; under U44A C54A, 0.588.
Take U44A C54G: the self-cleavage was 0.461.
As to U43G A59U, the self-cleavage came out at 0.566.
With U43G A59C, the self-cleavage stood at 0.513.
As for U43G A59G, the figure is 0.836; as for U43A C45A, 0.859; as for U43A C45U, 1.03.
On to U43G G48A, for which the self-cleavage is 0.964.
As for U43G G48C, the figure is 0.933; as for U43G U69G, 0.97; as for U44G U49G, 0.927.
Take U44A G47C: the self-cleavage was 0.93.
As for U44C G58A, the figure is 0.981.
Consider U44C G58U, for which the self-cleavage amounted to 0.963.
For the variant U44C G58C, the self-cleavage came to 0.917.
Under U44G G48C stands 0.965; under U43C U62C, 0.86; under U43C U62A, 0.769.
Under U43C C66U stands 0.89.
Under U43C C66G stands 0.806; under U43A A60G, 0.683; under U43A A60U, 0.29.
In the case of U43C A52C, the self-cleavage came out at 0.968.
As to U43C A52U, the self-cleavage stood at 1.
As to U43A U61C, the self-cleavage was 0.334.
Turning to U44G U67A, the self-cleavage was 0.883.
Regarding U44G U67G, the self-cleavage was determined as 1.01.
Under U44G U67C stands 0.977.
Consider U44G G68A, for which the self-cleavage came out at 0.942.
Turning to U44G G68U, the self-cleavage was determined as 1.03.
Under U44G G68C stands 1.01.
Regarding U43C U46A, the self-cleavage was found to be 0.985.
Under U43C U46G stands 0.97; under U43C U46C, 0.939.
As for U43C A60C, the figure is 0.227; as for U43C A60U, 0.415; as for U43C A60G, 0.798.
Under U43A G56C stands 0.336; under U43A G56U, 0.427; under U43A G56A, 0.641.
For U43A U69A, the self-cleavage came out at 0.974.
With U43A U69G, the self-cleavage came to 1.01.
For the variant U43A U44G, the self-cleavage was determined as 0.957.
Under U43A U44C stands 0.987.
For the variant U43A U44A, the self-cleavage worked out at 0.888.
As for U43C G68U, the figure is 1; as for U44G A51G, 0.671; as for U44G A51C, 0.966.
With U44G A51U, the self-cleavage stood at 0.941.
As for U43C G50A, the figure is 0.956; as for U43G U62G, 0.468; as for U43A U49A, 0.944.
Turning to U43A U49G, the self-cleavage worked out at 0.955.
Under U43A U49C stands 0.939; under U43G G50U, 0.952; under U43G G50A, 0.938.
As for A42U U62G, the self-cleavage is 0.738.
For the variant A42U U62A, the self-cleavage worked out at 0.809.
Under A42U U62C stands 0.721; under U43G C45G, 0.907; under U43G C45A, 0.886.
As for U44C U64G, the figure is 0.719; as for U44C U64A, 0.662; as for U43G U49C, 0.815.
Under U43G U49G stands 0.922.
Regarding U43G U49A, the self-cleavage amounted to 0.963.
As to U44C C63G, the self-cleavage is 0.417.
On to U44C C63U, for which the self-cleavage worked out at 0.819.
Under U44G A60C stands 0.368.
With U44G A60G, the self-cleavage worked out at 0.819.
For U44G A60U, the self-cleavage worked out at 0.382.
Under U43A C54G stands 0.418; under U43A C54A, 0.599; under U44C C54G, 0.599.
Regarding U44C C54A, the self-cleavage is 0.627.
As for U44C C54U, the figure is 0.816; as for U44C U53A, 0.895.
As to U44C U53G, the self-cleavage is 0.747.
Under U44C U53C stands 0.647.
As for U43C U55A, the figure is 0.632; as for U43C U55C, 0.455.
Under U44A U53C stands 0.684; under U44A U53A, 0.922.
Consider U44A U53G, for which the self-cleavage was determined as 0.84.
As for U44A U69G, the figure is 1.02.
As to U44A U69C, the self-cleavage amounted to 1.05.
Under U44A U69A stands 0.956; under U43G C63G, 0.446.
Consider U44C U61C, for which the self-cleavage was determined as 0.317.
Under U43G U46G stands 0.915; under U43G U46C, 0.677; under U44C A59G, 0.958.
As for U44C A59C, the figure is 0.577; as for U44C A59U, 0.657.
For U43A G50A, the self-cleavage is 0.962.
For the variant U43A G50U, the self-cleavage is 0.959.
Under U43A G50C stands 0.91.
U44C U67A: the self-cleavage is 0.954.
U44C U67G: the self-cleavage was 0.931.
Under U43G U67C stands 0.915; under U43G U67G, 0.867; under U43G U67A, 0.79.
As for U44G U46C, the figure is 0.928.
Under U44G U46G stands 0.909; under U44G U46A, 0.978; under U44G U64G, 0.84.
As for U44G U64C, the self-cleavage is 0.754.
U44A C66U: the self-cleavage amounted to 0.926.
Under U44A C66G stands 0.658.
In the case of U44A G48A, the self-cleavage turned out to be 0.953.
Under U44A A60C stands 0.423; under U44A A60U, 0.353.
Under U43G U55G stands 0.264; under U43G U55A, 0.486; under U43G C54A, 0.432.
Under U43G C54G stands 0.318; under U43A C57U, 0.41; under U43A C57A, 0.271.

For the origin of these results see the RNAGym collection of RNA variant scans (doi:10.7554/elife.80360).
